From US20100199363A1, “ENZYMES FOR DEGRADING HERBICIDES” (priority 2006, published 2010)
Like-named read-outs stand apart in the source and are kept apart here.

How the values were obtained:
GloxA = test: Substrate range of partially purified recombinant GloxA; assay type: biochemical, Arthrobacter sp. TBD; conditions: for Removal of substrate, Specific Activity: partially purified recombinant GloxA; for Removal of substrate, Relative Activity: relative to glyphosate = 100
Procedure: (§1) Crude enzyme extracts from E. coli cells were prepared as follows. Cells were harvested and the cell pellets resuspended in 1 mL lysis buffer (25 mM Tris-Cl pH 7.5 with 1 mgml^−1 lysosyme) and lysed by sonication on ice (Branson sonifier, 60% duty cycle, 30 seconds on, 30 seconds off for ten repeats). The soluble fraction was collected by centrifugation at 5000 g for 5 minutes and the protein content measured using Biorad protein dye-binding assay (BIORAD). Partially purified extracts were prepared by purification of the S-tagged or HIS-tagged GloxA protein from soluble CFE using S-protein agarose (Novagen) the Talon HIS-tag Purification System (BD Biosciences), according to manufacturer's instructions. Partially pure GloxA was eluted from the column using either 3M MgCl2 or 2.5 mM imidazole in the loading buffer. Enzyme reactions were prepared containing 500 μL crude enzyme extract or 250 μL partially purified enzyme extract (˜10 μg protein lysate) in 25 mM Tris-Cl pH7.5, 1 mM FAD, 0.1 mM MgCl2. After preincubation at 37° C. for 2 minutes, 1 mM glyphosate was added to the reaction, which was then incubated with shaking for a further 10-60 minutes. After the required reaction time, reactions were derivatized with tosyl chloride and analysed by HPLC as described above. All enzyme assays were performed in triplicate and repeated at least twice to confirm data. For determination of apparent kinetic parameters, substrate concentrations were varied over a suitable range, and the data fitted to a sum of exponential equations using Kaleidagraph (Synergy Software) or Hyper 1.1 (J. S. Easterby).

[1] = GloxA enzyme assay with crude or partially purified extracts, HPLC after tosyl chloride derivatization; assay type: biochemical
Procedure: (§2) Detection of glyphosate and AMPA by HPLC analysis was performed using a modified version of the method of Tomita et al. (1991) (Column: C18 4.6 uM, 5 Å column. Mobile Phase: 0.2MK2HPO4, 15% acetonitrile). Analytes were derivatized with tosyl chloride and detected at a wavelength of 240 nm. One ml of reaction supernatant was mixed with 0.5 mL 0.4MNaHPO4 pH 11.0, followed by addition of 200 μL tosyl chloride solution (10 mgmL^−1 p-toluene sulfonylchloride [Sigma] in acetonitrile). After incubation at 50° C. for 5 minutes, 20 μL of filtered reaction product was injected onto the HPLC for analysis.
as §1

[2] = Apparent kinetic parameters of GloxA, glyphosate as substrate; assay type: biochemical; conditions: herbicide glyphosate
Procedure: as §1, with “For determination of apparent kinetic parameters, substrate concentrations were varied over a suitable range, and the data fitted to a sum of exponential equations using Kaleidagraph (Synergy Software) or Hyper 1.1 (J. S. Easterby).” left out

[3] = tested on: A. thaliana var. Landsberg; test: Glyphosate tolerance of Arabidopsis plants expressing GloxA (Tolerance Score); assay type: in vivo, Arabidopsis thaliana; conditions: five times the normal dose (12.5 kga.i.ha^−1), Day 8 post-application of herbicide
Description: FIG. 5. […] To obtain the Tolerance Score, plants were visually assessed for leaf health, plant radius and flowering on Day 8 post-application of herbicide. Untreated controls in perfect health scored 7-8 under the same system.
T1 seedlings can be transplanted and cultivated for seed through two generations to eventually isolate the homozygous T3 seeds. T2 and T3 plants were then screened for increased resistance to glyphosate, essentially using the methods described by Jander et al. (2003), but with A. thaliana var. Landsberg, not Columbia, and using treatment doses ranging from 2.5-25 kg a.i. ha^−1. The scores given in FIG. 5 are for a dose of 5× the expected I100 dose (12.5 kga.i.ha^−1)

[4] = Apparent kinetic parameters of GloxA, glufosinate as substrate; assay type: biochemical; conditions: herbicide glufosinate
Procedure: as §1, with “After preincubation at 37° C. for 2 minutes, 1 mM glyphosate was added to the reaction, which was then incubated with shaking for a further 10-60 minutes.” left out, “For determination of apparent kinetic parameters, substrate concentrations were varied over a suitable range, and the data fitted to a sum of exponential equations using Kaleidagraph (Synergy Software) or Hyper 1.1 (J. S. Easterby).” left out

[5] = Side-by-side assay of GloxA and synthetic GOX extracts, iminodiacetic acid; assay type: biochemical; conditions: extracts assayed side-by-side, FIG. 4
Procedure: (§3) Crude enzyme extracts from E. coli cells were prepared as follows. Cells were harvested and the cell pellets resuspended in 1 mL lysis buffer (25 mM Tris-Cl pH 7.5 with 1 mgml^−1 lysosyme) and lysed by sonication on ice (Branson sonifier, 60% duty cycle, 30 seconds on, 30 seconds off for ten repeats). The soluble fraction was collected by centrifugation at 5000 g for 5 minutes and the protein content measured using Biorad protein dye-binding assay (BIORAD). Partially purified extracts were prepared by purification of the S-tagged or HIS-tagged GloxA protein from soluble CFE using S-protein agarose (Novagen) the Talon HIS-tag Purification System (BD Biosciences), according to manufacturer's instructions. […] After the required reaction time, reactions were derivatized with tosyl chloride and analysed by HPLC as described above. […]
(§4) For the purposes of direct comparison between the enzymes, a synthetic construct was made encoding the GOX gene based on SEQ ID NO:17 from U.S. Pat. No. 5,776,760. […] Soluble protein expression of GOX was optimized under varying temperature and IPTG conditions, and GOX protein expression detected by Coomasie-stained SDS-PAGE analysis and GOX enzymatic activity assayed as described above for GloxA, with HPLC analysis of activity to detect the removal of glyphosate and production of AMPA according to analytical methods above.

[6] = GloxA enzyme assay with crude or partially purified extracts, HPLC after tosyl chloride derivatization; assay type: biochemical; conditions: for Glyphosate Removal: partially purified GloxA
[7] = Side-by-side assay of GloxA and synthetic GOX extracts, glyphosate; assay type: biochemical; conditions: extracts assayed side-by-side, FIG. 4
Procedure: as §3, §4

[8] = Resting cell biocatalytic assay of cells expressing recombinant GloxA; assay type: cell-based, E. coli
Procedure: as §2
The glyphosate-degrading protein was designated GloxA, and sub-cloning of gloxA into an expression vector and assaying for glyphosate-degrading activity confirmed cells expressing recombinant GloxA were able to degrade glyphosate, with resting cell biocatalytic assays having glyphosate-degrading activity of 300 μmol min^−1 mg wet cell mass^−1, and crude enzyme extracts having an activity of 841 μmolmin^−1mg total protein (Table 2). Of importance is that glycine was not detected as a product at this stage of the analysis of GloxA, and is presumed to have been rapidly metabolized by other enzymes contained within the E. coli resting cells and crude enzyme extract preparation.

[9] = Glyphosate degradation by GloxA-like homologous proteins, soluble cell-free extracts; assay type: biochemical; conditions: soluble cell-free protein extracts
Description: Selected putative GloxA-like homologous proteins were then expressed and assayed for glyphosate degradative activity. The nucleotide coding sequences of selected putative homologues were commercially synthesised (Geneart, GmBH), cloned and expressed using the Champion pET200D/TOPO. Expression System (Invitrogen), according to manufacturer's instructions. Recombinant protein expression was verified and quantitated by Coomasie-stained SDS-PAGE analysis and spot-densitometry using AlphaImager 2200 visualization and documentation system (Alpha Innotech).
Enzymatic assays to assess glyphsate degradation were, performed using soluble cell-free protein extracts (partially purified protein) in a 1 ml volume containing 100 μg total cell-free protein (˜10 μg enzyme extract), 1 mM MgCl2, 1 mM glycine in 20 mM Tris-Cl pH 7.2. Negative controls included cell-free extracts from E. coli BL21 Star both containing no expression vector and containing pET200D/TOPO without an insert.

[10] = herbicide glyphosate; Siehl et al. (2005), WO 92/00377; cited from earlier work
[11] = wildtype GOX, U.S. Pat. No. 5,776,760; cited from earlier work

NCP(=O)(O)O [AMPA, aminomethylphosphonic acid]
Removal of substrate, Specific Activity (GloxA): 602 μmolmin^−1 mg^−1
Removal of substrate, Relative Activity (GloxA): 71%

O=C(O)CNCP(=O)(O)O [glyphosate, N-(phosphonomethyl)glycine]
Removal of substrate, Specific Activity (GloxA): 841 μmolmin^−1 mg^−1
Removal of substrate, Relative Activity (GloxA): 100%

O=C(O)CNCC(=O)O [iminodiacetic acid]
Removal of substrate, Specific Activity (GloxA): 5013 μmolmin^−1 mg^−1
Removal of substrate, Relative Activity (GloxA): 598%

B1: GloxA: 473 amino acid glyphosate-degrading putative oxidoreductase from Arthrobacter sp. TBD, SEQ ID NO:1 (protein)
chain: VKTTVFERNVPQTAVVSHALAGAAHRPYWIDHLQDSATRYPQLDGDAAADLVIVGGGYTGLWTALRAKERDPGRTVILLEGEQVAWAASGRNGGFCEASLTHGHENGKNRWPDELETLDRLGMENLDRMQEAVEKYAMDCEWERTGELNVAVEPHQVAWLQEDDTPGSVFLDQDAVRAEVNSPTYLAGRWHKDSVAMVHPYKLGLELARVATELGVVIYEGTRVRELNDHEHGVTVVTERGIVEAGHVVLGTNVFPSLLKRNQLMTVPVYDYALMTEPLTAEQLESIGWGKRQGIGDVANQFHYYRITKDHRILFGGYDALYFWGRRVDQKHEHQPATWEKIASHFFTTFPQLEGLKFTHKWAGPIDSSTQFCAFFGTARKGRVAYAAGFTGLGVGATAFAADVLLDLLAGLDTERTRLEMVRKRPLPFPPEPLASLGINLTRWSMDRADHNQGKRNIILKALDAVGLGFDS
modifications: Arthrobacter sp. TBD
Specific Activity, Removal of glyphosate ([1]; Crude enzyme extract, approximate value): 841 μmolmin^−1 mg^−1 protein
glycine as a product ([1]; E. coli resting cells and crude enzyme extract preparation): not detected
Specific Activity, Production of glycine ([1]; PPE + FAD + Mg^2+): 548 μmolmin^−1 mg^−1 protein
production of AMPA from glyphosate ([1]; crude extracts and partially purified GloxA): no production
Glyphosate Removal ([1]; partially purified GloxA, Std (Mg^2+)): 856 µmol/min/mg
Specific Activity, Removal of glyphosate ([1]; partially purified enzyme extract, PPE + FAD + Mg^2+): 1590 μmolmin^−1 mg^−1 protein
Kcat [2]: 179.97 s⁻¹
Km [2]: 56 µM
tolerance to glyphosate (Tolerance Score) [3]: confers tolerance
Kcat [4]: 158.9 s⁻¹
Km [4]: 1200 µM
specific activity towards iminodiacetic acid compared with GOX [5]: 0.9 times less
Specific Activity, Production of glycine ([6]; PPE + FAD − Mg^2+): 413 μmolmin^−1 mg^−1 protein
Specific Activity, Removal of glyphosate ([6]; PPE + FAD − Mg^2+): 838 μmolmin^−1 mg^−1 protein
Specific Activity, Production of glycine ([6]; PPE − FAD + Mg^2+): 562 μmolmin^−1 mg^−1 protein
Specific Activity, Removal of glyphosate ([6]; PPE − FAD + Mg^2+): 1450 μmolmin^−1 mg^−1 protein
Glyphosate Removal ([6]; Co^2+): 1076 µmol/min/mg
Glyphosate Removal ([6]; No FAD): 520 µmol/min/mg
Glyphosate Removal ([6]; No Metals (+EDTA)): 432 µmol/min/mg
Glyphosate Removal ([6]; Zn^2+): 624 µmol/min/mg
specific activity towards glyphosate compared with GOX [7]: almost two fold higher
Catalytic Activity, Removal of glyphosate [8]: 300 μmolmin^−1 mg^−1 wet cell mass
Partially Purified Activity [glyphosate degradation] [9]: 841 µmol/min/mg

B2: GOX: Glyphosate oxidoreductase producing AMPA and glyoxylate from glyphosate, SEQ ID NO:3 (protein)
chain: MSENHKKVGIAGAGIVGVCTALMLQRRGFKVTLIDPNPPGEGASFGNAGCFNGSSVVPMSMPGNLTSVPKWLLDPMGRCQSGSAISNHHAWLIRFLLAGRPNKVKEQAKALRNLIKSTVPLIKSLAEEADASHLIRHEGHLTVYRGEADFAKDRGGWELRRLNGVRTQILSADALRDFDPNLSHAFTKGILIEENGHTINPQGLVTLLFRRFIANGGEFVSARVIGFETEGRALKGITTTNGVLAVDAAVVAAGAHSKSLANSLGDDIPLDTERGYHIVIANPEAAPRIPTTDASGKFIATPMEMGLRVAGTVEFAGLTAAPNWKRAHVLYTHARKLLPALAPASSEERYSKWMGFRPSIPDSLPVIGRATRTPDVIYAFGHGHLGMTGAPMTATLVSELLAGEKTSIDISPFAPNRFGIGKSKQTGPAS
modifications: Pseudomonas sp. LBAA
Kcat [10]: 0.667 s⁻¹
Km [10]: 25000 to 28000 µM
specific activity [11]: 15 nmolmin^−mg^−1
